Laboratory results published in US20220017960.

Target: FLAG-tagged TRIM25, Q14258
Sequence (Q14258 whole entry): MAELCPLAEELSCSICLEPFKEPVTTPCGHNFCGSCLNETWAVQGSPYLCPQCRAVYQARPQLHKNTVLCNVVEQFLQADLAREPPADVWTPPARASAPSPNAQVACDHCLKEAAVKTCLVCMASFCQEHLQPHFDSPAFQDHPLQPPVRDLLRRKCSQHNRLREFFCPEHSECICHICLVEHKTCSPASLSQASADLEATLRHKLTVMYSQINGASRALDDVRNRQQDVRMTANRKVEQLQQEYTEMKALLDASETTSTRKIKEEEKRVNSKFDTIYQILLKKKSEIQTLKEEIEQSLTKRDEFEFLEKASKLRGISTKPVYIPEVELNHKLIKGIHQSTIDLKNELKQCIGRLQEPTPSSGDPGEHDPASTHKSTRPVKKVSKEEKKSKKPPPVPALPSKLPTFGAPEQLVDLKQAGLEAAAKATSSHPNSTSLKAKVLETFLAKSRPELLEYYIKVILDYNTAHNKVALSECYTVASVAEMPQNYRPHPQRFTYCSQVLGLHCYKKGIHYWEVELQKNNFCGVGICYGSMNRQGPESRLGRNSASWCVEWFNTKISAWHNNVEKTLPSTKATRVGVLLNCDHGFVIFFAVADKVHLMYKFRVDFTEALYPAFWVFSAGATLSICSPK

B1: Xpress (Xpr)-tagged human USP15 wild type (WT) (protein)
chain: AEGGAADLDTQRSDIATLLKTSLRKGDTWYLVDSRWFKQWKKYVGFDSWDKYQMGDQNVYPGPIDNSGLLKDGDAQSLKEHLIDELDYILLPTEGWNKLVSWYTLMEGQEPIARKVVEQGMFVKHCKVEVYLTELKLCENGNMNNVVTRRFSKADTIDTIEKEIRKIFSIPDEKETRLWNKYMSNTFEPLNKPDSTIQDAGLYQGQVLVIEQKNEDGTWPRGPSTPNVKNSNYCLPSYTAYKNYDYSEPGRNNEQPGLCGLSNLGNTCFMNSAIQCLSNTPPLTEYFLNDKYQEELNFDNPLGMRGEIAKSYAELIKQMWSGKFSYVTPRAFKTQVGRFAPQFSGYQQQDCQELLAFLLDGLHEDLNRIRKKPYIQLKDADGRPDKVVAEEAWENHLKRNDSIIVDIFHGLFKSTLVCPECAKISVTFDPFCYLTLPLPMKKERTLEVYLVRMDPLTKPMQYKVVVPKIGNILDLCTALSALSGIPADKMIVTDIYNHRFHRIFAMDENLSSIMERDDIYVFEININRTEDTEHVIIPVCLREKFRHSSYTHHTGSSLFGQPFLMAVPRNNTEDKLYNLLLLRMCRYVKISTETEETEGSLHCCKDQNINGNGPNGIHEEGSPSEMETDEPDDESSQDQELPSENENSQSEDSVGGDNDSENGLCTEDTCKGQLTGHKKRLFTFQFNNLGNTDINYIKDDTRHIRFDDRQLRLDERSFLALDWDPDLKKRYFDENAAEDFEKHESVEYKPPKKPFVKLKDCIELFTTKEKLGAEDPWYCPNCKEHQQATKKLDLWSLPPVLVVHLKRFSYSRYMRDKLDTLVDFPINDLDMSEFLINPNAGPCRYNLIAVSNHYGGMGGGHYTAFAKNKDDGKWYYFDDSSVSTASEDQIVSKAAYVLFYQRQDTFSGTGFFPLDRETKGASAATGIPLESDEDSNDNDNDIENENCMHTN
deubiquitination of TRIM25 (anti-FLAG immunoprecipitation, immunoblot with anti-ubiquitin and anti-TRIM25 antibodies): we observed that TRIM25 is a target for deubiquitination by USP15

B2: Xpress (Xpr)-tagged human USP15 mutant (L720R) (protein)
chain: AEGGAADLDTQRSDIATLLKTSLRKGDTWYLVDSRWFKQWKKYVGFDSWDKYQMGDQNVYPGPIDNSGLLKDGDAQSLKEHLIDELDYILLPTEGWNKLVSWYTLMEGQEPIARKVVEQGMFVKHCKVEVYLTELKLCENGNMNNVVTRRFSKADTIDTIEKEIRKIFSIPDEKETRLWNKYMSNTFEPLNKPDSTIQDAGLYQGQVLVIEQKNEDGTWPRGPSTPNVKNSNYCLPSYTAYKNYDYSEPGRNNEQPGLCGLSNLGNTCFMNSAIQCLSNTPPLTEYFLNDKYQEELNFDNPLGMRGEIAKSYAELIKQMWSGKFSYVTPRAFKTQVGRFAPQFSGYQQQDCQELLAFLLDGLHEDLNRIRKKPYIQLKDADGRPDKVVAEEAWENHLKRNDSIIVDIFHGLFKSTLVCPECAKISVTFDPFCYLTLPLPMKKERTLEVYLVRMDPLTKPMQYKVVVPKIGNILDLCTALSALSGIPADKMIVTDIYNHRFHRIFAMDENLSSIMERDDIYVFEININRTEDTEHVIIPVCLREKFRHSSYTHHTGSSLFGQPFLMAVPRNNTEDKLYNLLLLRMCRYVKISTETEETEGSLHCCKDQNINGNGPNGIHEEGSPSEMETDEPDDESSQDQELPSENENSQSEDSVGGDNDSENGLCTEDTCKGQLTGHKKRLFTFQFNNLGNTDINYIKDDTRHIRFDDRQLRLDERSFRALDWDPDLKKRYFDENAAEDFEKHESVEYKPPKKPFVKLKDCIELFTTKEKLGAEDPWYCPNCKEHQQATKKLDLWSLPPVLVVHLKRFSYSRYMRDKLDTLVDFPINDLDMSEFLINPNAGPCRYNLIAVSNHYGGMGGGHYTAFAKNKDDGKWYYFDDSSVSTASEDQIVSKAAYVLFYQRQDTFSGTGFFPLDRETKGASAATGIPLESDEDSNDNDNDIENENCMHTN
deubiquitinase activity towards TRIM25 (anti-FLAG immunoprecipitation, immunoblot with anti-ubiquitin and anti-TRIM25 antibodies): we observed a reduced deubiquitinase activity in the L749R variant (the corresponding human L720R isoform was tested), when compared to WT
